# Experiment: soluble on expression in E. coli; label from the status in PepcDB or PDB records
row,Sequence,soluble on expression in E. coli
1,GPGSMPSLNFFLADESRLESSRDDSTAEVAHFTPSQHALRRILISTAMANKSLEYVQGMNEYVAHLLYAFAKGKASNLTASVEADTFFCFQTLLSYLGDDFCRSFDFDAACGLTSTMRLFDNVLRFFDPSLFQHLEYLGINAEHYALRWIMLLFTQEFNIADGLRVWDFLLSFGDEIRNAAFFVAAAMCHHLRSSILSGEAMSDVLPLLQEYPAGDVNLFLRIALKWIVKFDFDLLHELKPLSPEGVQALRCSRGLEGGMNFVQVMQSWVPSIF,not soluble
2,GPGSMPTAKVTEKEAACVTALKGEYPASKADPADAGFLSDSTYLRFARAHDGNVKKASELLGATLRWRKQTKPYAITMEEVQNAMKQTTMYCGGRCNIGCPVIAMVPGMQNDCTVEERTKQLVYIMEETHRKGYERITWIIDFGAMGSHRDERSKEARKETMKILQDYYPERMARILLYRTPWYIRMLLGAAKMFMDARTAAKVYNAGRTIEALEKFVDRDQVPPVCGGTMKGSALSHLEELPSLNSE,not soluble
3,GPGSMPTRSHGDEEYYRQSRYKPVSIEDTPMFWKERADKCYGTQQWKAAANAYSESIKRDGAFLTCVMNRSACYLQMADYKRAIEDCSLALTMLANTPASEVTQERYRGLMTKLHARRGAAYCWADDLKSGAADLRMAAAYRDPTSDDDVAADLAMIEAQMKERGITEVDACVDPLSTRMQEAAAQYYQGSYEAAEATYSAILKEQPFHMKAQGNLAATLLRAGKFTQALQVCDGIVQFCSEAAAALEQPGGLAGDQLDSDDEEDEDEPDWAASSTESAPEEVEGASNKDTLVRQRRAAAKTLGEQSGHVYMLLKAYVRSAAALCGMKEYHKAHGYLERAMRITPYDNDLREDCNRLAEKIRMDTLITASAGSARTQKAAV,soluble
4,GPGSMPVDYSKKLDALRELYERVQQKDTDIPEDVYAAAGVKNKARLKDIEKEISTTKKKVSQEVKKVTNEEIEKEYEALAKEHNMTVEEFKETVMGKGRQPALGSEFSERHAAQRKERAEQRDLKETRRQVERGDFDMTVDYV,soluble
5,GPGSMQMEEKQAFFVESVDGRKFKMVIRGDLGKLSVAKIRRYLKSYGVPENQLLLAGNRVLEDAMLGEQFGLENEGVLHLREPTTVQHLAPAAVPSTAQSRTQLQQKPELSYEPQSAWRETRYEPAAHDARQMQREIERLQRQVEAAEARNADLEHQLEQVAESSAPYPPRGGAGGARRMSNSSDLDGLQVAKQSLKILAQKLGVSLQFDKNLTCVVGTDADFSILLTYDPATERLYIYSSLLTELPDHPPLRMKLYEVLLEGSLLGREVCGGGVGLSTQNNVVVLTTSLPVRHCSPEALCEVMPLFVETLVRWRSLIDELVR,soluble
6,GPGSMRRTFKKLGLSALRACRGAGAAGTAASAHTSGFARVPSMSAPTALTVPRRSASDAALADATRRELEEEMGRSDKPEQPTPPAGWQVVRKPGTCTFDLTKSFEGEDLVVRYSTNQDSDKANSHNIFVYITQKNGQTMQADLSIEEGELVLNNIRFYDEAALAKDTGAEAEAKRNELYTGPLVHELDYDLLNCVMTYLEKRGVDEKLGEFVVLYSFWAEQQDYEAWLTTMNKFAS,not soluble
7,GPGSMRTSADIACLLAQYIKGQPEERLVTAAAYPDIFTPDVVEELNGAYALLLDAQRQAREACCAVDDVTREHGLPTALRITPKEQNELDVTEEMMIKRFAEEVAVYLSEGGAPNISSDAEPTSVLNSHCVDLRWHQHSTLVLHVLSYLPLEFTLSVAENVCKGWREWLFIPEFSGMFWHECTMREYPECVRMLLLSGGGDARQCDWRTFAMLCCSVDEEDISGEGTRSPDLVHS,not soluble
8,GPGSMRWPAEPGCGSQGPATPERANKLRFLLVGKTDSGNHPSGWLVARTVRYSTADAEIGPCKGLISHDCKLLLLLCGYFERNPGPLRFVQQNVNGVSAVKLSSLLALDADVYLLPEVKKLREASRICKVPPYTVYCSPPNARGGRVAILVHQRSSIQTRSVTWKALPNDTGIKAVTVKL,not soluble
9,GPGSMSAPTPRTGIIAGFNKGHVTTRRPRQPSPNDRFAVPHKHLRAVKAIIADLVGLSPLEKRVQEFLRVGKEKRALKYCKKRLGDFTAAKKKRSKMEEALRHATKKHH,soluble
10,GPGSMSATEAVVEPKAPDVCTEANERPPTESGVAAPVKRLFDLLQEDSKERVVRLLTAFRELTLLEQESLAQEMGVTLPKEEKWRAPCPLIARQPSGPSLEVRRRDPSYVALCPSVSSALRELGSKEAARRLPDADLRKLVEGALGEDGVYLTVPESDGEGCAAASERVGVVDDGKPPLLVRSRCYQALRLARDEEIETDAQYTRPRVLNVTGIPLEESDVWEWFNLLDVARNGTVGVDAFLTSVRELDRGFGTSSKVQEAFEDESRSLSVDGQLSFDKFAYLVTRFSRY,soluble

# — the DeepSol protein solubility set
